Source: article PMC5098251 (Scientific Reports, 2016)

Columns and labels:
[1] = molecular target: T1, FasR-Fc (Fc-fused Fas receptor) (Homo sapiens, UniProt P25445); assay: on-bead binding assay read by flow cytometry (Bead Surface Display); SNAP-scFv-HA made by in vitro transcription/translation and held on streptavidin beads through BG-DNA anchors; beads incubated 1 h at room temperature with FasR-Fc (1 nM unless stated; 1, 10 and 30 nM in Fig. 2B), then with DyLight488-labelled goat anti-Fc; 1.5% marvel in PBS, washes with PBS and 0.05% Tween 20; details: one partner purified
T1 construct: Fas receptor (FasR, CD95), human; also called Fas-Fc; CD95; source: bought: R&D Systems

[2] = molecular target: T2, recombinant human FasR (Homo sapiens, UniProt P25445); assay: SPR; BIAcore T100; low density IgG-coated chip surface, recombinant human FasR; 1:1 Langmuir model; at least in duplicate; details: both partners purified
T2 construct: Fas receptor (FasR, CD95), human, recombinant; The FasR of the BLI and SPR experiments; Details are in Supplementary Protocols 8-10; also called recombinant FasR

[3] = molecular target: T2, recombinant human FasR; assay: BLI; Octet Red384; recombinant human FasR; 1:1 Langmuir model; at least in duplicate; who was immobilised is not told (Supplementary Protocols 8-10); details: both partners purified

T2 sequence (P25445 26-335): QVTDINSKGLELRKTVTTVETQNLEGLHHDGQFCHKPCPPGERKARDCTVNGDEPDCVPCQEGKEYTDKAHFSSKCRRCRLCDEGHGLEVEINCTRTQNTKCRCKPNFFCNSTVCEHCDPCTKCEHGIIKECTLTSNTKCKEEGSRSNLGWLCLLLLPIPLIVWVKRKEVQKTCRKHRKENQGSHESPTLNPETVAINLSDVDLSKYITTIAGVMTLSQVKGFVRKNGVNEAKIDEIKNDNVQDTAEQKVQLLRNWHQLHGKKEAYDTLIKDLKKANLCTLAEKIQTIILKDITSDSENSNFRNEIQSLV
T1 sequence (P25445 26-173): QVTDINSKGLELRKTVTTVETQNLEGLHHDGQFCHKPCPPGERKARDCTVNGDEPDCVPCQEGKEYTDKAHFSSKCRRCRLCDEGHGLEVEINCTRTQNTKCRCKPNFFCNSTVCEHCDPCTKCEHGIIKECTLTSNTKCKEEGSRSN

Kd [3] [nM]	koff [3] [s⁻¹]	kon [3] [M⁻¹ s⁻¹]	Binder	other results
			SNAP-A11b scFv-HA (scFv, V domains shown, numbers count on: Kabat numbering; scFv linker, as in m6; On-bead form of m14; not shown: SNAP-tag, N-terminal, kept; HA, C-terminal, kept) VH: QLQLQESGPGLVKPSETLSLTCTVPGASISANSYYGVWVRQSPGKGLEWVGSIAYRGNSNSGSTYYNPSLKSRATVSVDTSKNQVSLRLTSVTAADTALYYCARRQLLDDGTGYQWAAFDVWGQGTMVTVSG VL: QSVLTQPPSVSEAPRQTVTISCSGNSFNTGRYPVNWYQQLPGKAPKLLIYSNNLRLSGVSDRFSGSKSGTSASLAIRDLLSEDEADYYCSTWDDTLEGWVFGGGTKVTVL	fold increase of MFS over E09 [1]: > 2 fold
			SNAP-Ep6b_B01 scFv-HA (scFv, V domains shown, numbers count on: Kabat numbering; scFv linker, as in m6; not shown: SNAP-tag, N-terminal, kept; HA, C-terminal, kept) VH: QLQLQESGPGLVKPSETLSLTCTVSGASISANSYYGVWVRQSPGKGLEWVGSIAYRGNSNSGSTYYNPSLKSRATVSVDSSKNQVSLRLTSVTAADTALYYCARRQLLDDGTGYQWAAFDVWGQGTMVTVSS VL: QSVLTQPPSVSEAPRQTVTISCSGNSSNIGRYPVNWYQQLPGKAPKLLIYSDNLRFSGVPDRFSGSKSGTTASLAIRDLLSEDEADYYCSTWDDTLEGWVFGGGTKVTVL	fold MFS over E09_Y58S (1 nM antigen) [1]: 8.4 fold; fold MFS over E09_Y58S (30 nM antigen) [1]: 1.8 fold
0.09	1.2e-05	249000	R4aS IgG (antibody, V domains shown, numbers count on: Kabat numbering; IgG heavy constant region; light constant region; IgG; also called antibody R4aS) VH: QLQLQESGPGLVKPSETLSLTCTVPGASISANSYYGVWVRQSPGKGLEWVGSIAYRGNSNSGSTYYNPSLKSRATVSVDTSKNQVSLRLTSVTAADTALYYCARRQLLDDGTGYQWAAFDNWDQGTMVTVSS VL: QSVLTQPPSVSEAPRQTVTISCSGNSFNTGRYPVNWYQQLPGKAPKLLIYSNNLRLSGVSDRFSGSKSGTSASLAIRDLLSEDEADYYCSTWDDTLEGWVFGGGTKVTVL	Kd [2]: 0.14 nM; koff [2]: 3.8e-05 s⁻¹; kon [2]: 282000 M⁻¹ s⁻¹
			SNAP-A03a scFv-HA (scFv, V domains shown, numbers count on: Kabat numbering; scFv linker, as in m6; On-bead form of m11; not shown: SNAP-tag, N-terminal, kept; HA, C-terminal, kept) VH: QLQLQESGPGLVKPSETLSLTCTVPGASISANSYYGVWVRQSPGRGLEWVGSIAYRGNSNSGSTYYNPSLKSRATVSVDTSKNQVSLRLTSVTAADTALYYCARRRLLDDGTGYQWAAFDNWDQGTMVTVSS VL: QSVLTQSPSVSEAPRQTVTISCSGNSFNTGRYPVNWYQQLPGKAPKLLIYSNNLRLSGVSDRFSGSKSGTSASLAIRDLLSEDEADYYCSTWDDTLEGWVFGGGTKVTVL	fold increase of MFS over E09 [1]: > 2 fold
2.89	0.00039	153000	A05a scFv (scFv, V domains shown, numbers count on: Kabat numbering; scFv linker, as in m6; Most abundant variant of round IV; the same as the Clade 2 consensus R4aH; also called R4aH) VH: QLQLQESSPGLVKPSETLSITCTVPGASISANSYYGVWVRQSPGKGLEWVGSIAYRGNSNSGSTYYNPSLKSRATVSVDTSKNQVSLRLTSVTAADTALYYCARRQLLDDGTGYQWAAFDVWGQGTMVTVSS VL: QSVLTQPPSVSEAPRQTVTISCSGNSFNIGRYPVNWYQQLPGKAPKLLIYHNNLRFSGVSDRFSGSKSGTSASLAIRDLLSEDEADYYCSTWDDTLKGWVFGGGTKVTVL	
0.71	0.000125	214000	Ep6b_B01 scFv (scFv, V domains shown, numbers count on: Kabat numbering; scFv linker, as in m6) VH: QLQLQESGPGLVKPSETLSLTCTVSGASISANSYYGVWVRQSPGKGLEWVGSIAYRGNSNSGSTYYNPSLKSRATVSVDSSKNQVSLRLTSVTAADTALYYCARRQLLDDGTGYQWAAFDVWGQGTMVTVSS VL: QSVLTQPPSVSEAPRQTVTISCSGNSSNIGRYPVNWYQQLPGKAPKLLIYSDNLRFSGVPDRFSGSKSGTTASLAIRDLLSEDEADYYCSTWDDTLEGWVFGGGTKVTVL	
2.63	0.00029	147000	A09a scFv (scFv, V domains shown, numbers count on: Kabat numbering; scFv linker, as in m6; Selected by BeSD, round IV) VH: QLQLQEPGPGLTKPSETLSLTCTVPGASISADSYYGVWVRQSPGKGLEWVGSIAYRGNSNSGSTYYNPSLKSRATVSVDTSKNQVSLRLTSVTAADTALYYCARRQLLDDGTGYQWAAFDVWGQGTMVTVSS VL: QSVLTQPPSVSEAPRQTVTISCSGNSFNIGRYPVNWYQQLPGKAPKLLIYHNNLRFSGVSDRFSGSKSGTSASLAIRDLLSEDEADYYCSTWDDTLKGWVFGGGTKVTVL	
1.09	0.000181	240000	A03a scFv (scFv, V domains shown, numbers count on: Kabat numbering; scFv linker, as in m6; Selected by BeSD, round IV) VH: QLQLQESGPGLVKPSETLSLTCTVPGASISANSYYGVWVRQSPGRGLEWVGSIAYRGNSNSGSTYYNPSLKSRATVSVDTSKNQVSLRLTSVTAADTALYYCARRRLLDDGTGYQWAAFDNWDQGTMVTVSS VL: QSVLTQSPSVSEAPRQTVTISCSGNSFNTGRYPVNWYQQLPGKAPKLLIYSNNLRLSGVSDRFSGSKSGTSASLAIRDLLSEDEADYYCSTWDDTLEGWVFGGGTKVTVL	
1.09	0.000111	130000	A11b scFv (scFv, V domains shown, numbers count on: Kabat numbering; scFv linker, as in m6; Selected by BeSD, round IV) VH: QLQLQESGPGLVKPSETLSLTCTVPGASISANSYYGVWVRQSPGKGLEWVGSIAYRGNSNSGSTYYNPSLKSRATVSVDTSKNQVSLRLTSVTAADTALYYCARRQLLDDGTGYQWAAFDVWGQGTMVTVSG VL: QSVLTQPPSVSEAPRQTVTISCSGNSFNTGRYPVNWYQQLPGKAPKLLIYSNNLRLSGVSDRFSGSKSGTSASLAIRDLLSEDEADYYCSTWDDTLEGWVFGGGTKVTVL	
			SNAP-A07a scFv-HA (scFv, V domains shown, numbers count on: Kabat numbering; scFv linker, as in m6; On-bead form of m15; not shown: SNAP-tag, N-terminal, kept; HA, C-terminal, kept) VH: QLQLQESGPGLVKPSETLSLTCTVPGASISANSYYGVWVRQSPGKGLEWVGSIAYRGNSNSGSTYYNPSLKGRATVSVDTSKNQVSLRLTSVTAADTALYYCARRQLLDDGTGYQWAAFDNWDQGTMVTVSS VL: QSVLTQPPSVSEAPRQTVTISCSGNSFNIGRYPVNWYQQLPGKAPKLLIYSNNLRFSGVSDRFSGSKSGTSASLAIRDLLSEDEADYYCSTWDDTLKGWVFGGGTKVTVL	fold increase of MFS over E09 [1]: > 2 fold
1.02	0.000171	277000	A07a IgG (antibody, V domains shown, numbers count on: Kabat numbering; IgG heavy constant region; light constant region; IgG made from the scFv A07a) VH: QLQLQESGPGLVKPSETLSLTCTVPGASISANSYYGVWVRQSPGKGLEWVGSIAYRGNSNSGSTYYNPSLKGRATVSVDTSKNQVSLRLTSVTAADTALYYCARRQLLDDGTGYQWAAFDNWDQGTMVTVSS VL: QSVLTQPPSVSEAPRQTVTISCSGNSFNIGRYPVNWYQQLPGKAPKLLIYSNNLRFSGVSDRFSGSKSGTSASLAIRDLLSEDEADYYCSTWDDTLKGWVFGGGTKVTVL	Kd [2]: 0.29 nM; koff [2]: 6.7e-05 s⁻¹; kon [2]: 230000 M⁻¹ s⁻¹
0.23	5.9e-05	402000	Ep6b_B01 IgG (antibody, V domains shown, numbers count on: Kabat numbering; IgG heavy constant region; light constant region; IgG) VH: QLQLQESGPGLVKPSETLSLTCTVSGASISANSYYGVWVRQSPGKGLEWVGSIAYRGNSNSGSTYYNPSLKSRATVSVDSSKNQVSLRLTSVTAADTALYYCARRQLLDDGTGYQWAAFDVWGQGTMVTVSS VL: QSVLTQPPSVSEAPRQTVTISCSGNSSNIGRYPVNWYQQLPGKAPKLLIYSDNLRFSGVPDRFSGSKSGTTASLAIRDLLSEDEADYYCSTWDDTLEGWVFGGGTKVTVL	Kd [2]: 0.06 nM; koff [2]: 4.4e-05 s⁻¹; kon [2]: 746000 M⁻¹ s⁻¹
15.7	0.00266	236000	E09 IgG (antibody, V domains shown, VH: as the VH of m6 (E09); IgG heavy constant region; VL: as the VL of m6 (E09); light constant region; IgG; also called parent) VH: QLQLQESGPGLVKPSETLSLTCTVSGASISANSYYGVWVRQSPGKGLEWVGSIAYRGNSNSGSTYYNPSLKSRATVSVDTSKNQVSLRLTSVTAADTALYYCARRQLLDDGTGYQWAAFDVWGQGTMVTVSS VL: QSVLTQPPSVSEAPRQTVTISCSGNSFNIGRYPVNWYQQLPGKAPKLLIYYNNLRFSGVSDRFSGSKSGTSASLAIRDLLSEDEADYYCSTWDDTLKGWVFGGGTKVTVL	Kd [2]: 13.7 nM; koff [2]: 0.00239 s⁻¹; kon [2]: 174000 M⁻¹ s⁻¹
			SNAP-A01b scFv-HA (scFv, V domains shown, numbers count on: Kabat numbering; scFv linker, as in m6; On-bead form of m10; not shown: SNAP-tag, N-terminal, kept; HA, C-terminal, kept) VH: QLQLQESGPGLVKPSETLSLTCTVPGASISANSYYGVWIRQSPGKGLEWVGSIAYRGNSNSGSTYYNPSLKSRATVSVDTSKNRVSLRLTSVTAADTALYYCARRQLLDDGTGYQWAAFDVWGQGTMVTVPS VL: QSVLTQPPSVSEVPRQTVTISCSGNSFNIGRYPVNWYQQLPGKAPKLLIYHNNLRFSGVSDRFSGSKSGTSASLAIRDLLSEDEADYYCSTWDDTLKGWVFGGGTKVTVL	fold increase of MFS over E09 [1]: > 2 fold
			SNAP-E09_Y58S scFv-HA (scFv, V domains shown, whole scFv (VH, linker, VL) as in m3 (E09) with Y58S; not shown: SNAP-tag, N-terminal, kept; HA, C-terminal, kept) VH: QLQLQESGPGLVKPSETLSLTCTVSGASISANSYYGVWVRQSPGKGLEWVGSIAYRGNSNSGSTSYNPSLKSRATVSVDTSKNQVSLRLTSVTAADTALYYCARRQLLDDGTGYQWAAFDVWGQGTMVTVSS VL: QSVLTQPPSVSEAPRQTVTISCSGNSFNIGRYPVNWYQQLPGKAPKLLIYYNNLRFSGVSDRFSGSKSGTSASLAIRDLLSEDEADYYCSTWDDTLKGWVFGGGTKVTVL	binding result [1]: binds
2.15	0.000272	168000	A01b scFv (scFv, V domains shown, numbers count on: Kabat numbering; scFv linker, as in m6; Selected by BeSD, round IV) VH: QLQLQESGPGLVKPSETLSLTCTVPGASISANSYYGVWIRQSPGKGLEWVGSIAYRGNSNSGSTYYNPSLKSRATVSVDTSKNRVSLRLTSVTAADTALYYCARRQLLDDGTGYQWAAFDVWGQGTMVTVPS VL: QSVLTQPPSVSEVPRQTVTISCSGNSFNIGRYPVNWYQQLPGKAPKLLIYHNNLRFSGVSDRFSGSKSGTSASLAIRDLLSEDEADYYCSTWDDTLKGWVFGGGTKVTVL	
7.6	0.000956	236000	anti-Fas receptor scFv E09 (scFv, V domains shown, VH of E09; scFv linker; VL of E09; also called parent; wild-type E09) VH: QLQLQESGPGLVKPSETLSLTCTVSGASISANSYYGVWVRQSPGKGLEWVGSIAYRGNSNSGSTYYNPSLKSRATVSVDTSKNQVSLRLTSVTAADTALYYCARRQLLDDGTGYQWAAFDVWGQGTMVTVSS VL: QSVLTQPPSVSEAPRQTVTISCSGNSFNIGRYPVNWYQQLPGKAPKLLIYYNNLRFSGVSDRFSGSKSGTSASLAIRDLLSEDEADYYCSTWDDTLKGWVFGGGTKVTVL	
